Measurements reported in patent US8716221B2, “Modified exendins and uses thereof” (priority 2005, dated 2014).
Read-outs that look alike come from different tables or passages of the source. Where no end group is shown, it is not given here. [ ]: non-standard residue; d: D form. code ∗ = not defined here

Assays:
[1] = type: physicochemical; conditions: for 0 day Purity (%) / 5 days Purity (%) / 5 days Relative Purity (%) / 10 days Purity (%) / 10 days Relative Purity (%) / 15 days Purity (%) / 15 days Relative Purity (%): pH 4.5, 40° C.; for 5 days Relative Purity (%) / 10 days Relative Purity (%) / 15 days Relative Purity (%): compared with the corresponding sample at 0 day
Method: (§1) 1 mg of each sample was dissolved in a buffer solution, which contains 150 mM sodium chloride and 20 mM phosphate, from which a solution of concentration of 4 mg/ml was prepared and its pH is 8.0. The testing sample solutions were placed in a thermostat of 40° C. LC-MS was used to determine the purity of polypeptide. Correlation between the reduction ratio of the main peak area and time reflects the chemical stability of the polypeptide. Expressed as a percentage, purity is the percentage corresponding to the target peak in the total of all peaks including impurities. Using LC, the main peak was separated from any impurities, and the relative percentages of main peak and impurities at times 0 (before incubation at 40° C. at pH 4.5-8) and after 5, 10 and 15 days were determined. MS was used to identify the main peak as the target molecule. The main peak area plus the peak areas of any impurities gives a total equal to 100%, with relative purity calculated at a certain time (5, 10 or 15 days) against the purity at time 0 compared to the purity before incubation at 40° C. at pH 4.5-8.
(§2) The following method was used to determine the chemical stability of various modified exendins having a sequence identity of at least 90% to SEQ ID no. 17 under acidic/basic conditions. […] Purity was determined by LC-MS as percentage of the target peak in the total of all peaks including impurities as described in example 3.
4 mg Exendin-4 derivative polypeptide (described in Table 2 below) was dissolved in 20 mM sodium buffer (pH 4.5) so as to prepare a solution at concentration of 4 mg/ml. The testing sample solutions were placed in a thermostat setting at 40° C. LC-MS was used to determine the purity of polypeptide. The chemical stability of the polypeptide was expressed as the correlation between the reduction ratio of the main peak area and time and determined as described above.

[2] = Stability of Exendin-4 derivatives under basic conditions (PBS pH 7.4, 40° C., LC-MS purity); type: physicochemical; conditions: for 5 days Relative Purity (%) / 10 days Relative Purity (%): compared with the corresponding sample at 0 day
Method: as §1, §2
4 mg Exendin-4 derivative polypeptide (described in Table 3 above) was taken and dissolved in PBS buffer (KH2PO4 0.27 g/L, Na2HPO4 1.42 g/L, NaCl 8 g/L and KCl 0.2 g/L, pH 7.4) so as to prepare a solution at concentration of 4 mg/ml. The testing sample solutions were placed in a thermostat setting at 40° C. LC-MS was used to determine the purity of polypeptide. The chemical stability of the polypeptide was expressed as the correlation between the reduction ratio of the main peak area and time.

[3] = Test for the stability of the polypeptide (LC-MS purity, pH 8.0, 40° C.); type: physicochemical; conditions: for Purity (%) 0 day: 4 mg/ml
Method: The following method was used to determine the chemical stability of some polypeptides in the present invention.
as §1

[4] = tested on: normal mice; assay: Oral glucose tolerance test in normal mice after subcutaneous injection; type: in vivo; conditions: unit not given
From the text: Polypeptide of SEQ ID NO: 25 was modified with polyethylene glycol of molecular weight of about 40,000 (sample 4 as described in Examples 3 and 4 above).

[5] = first day after s.c. injection, dosage (20)
[6] = first day after s.c. injection, dosage (80)
[7] = third day after s.c. injection, dosage (20)
[8] = third day after s.c. injection, dosage (80)

Substance: HGEGTFTSDLSKQMEEEAVRLFIEWLKQGGPSSGAPPPK* [Sample 5]
- 0 day Purity (%) [1]: 98.3%
- 5 days Purity (%) [1]: 96.3%
- 5 days Relative Purity (%) [1]: 97.97%
- 10 days Purity (%) [1]: 95.1%
- 10 days Relative Purity (%) [1]: 96.74%
- 15 days Purity (%) [1]: 94.1%
- 15 days Relative Purity (%) [1]: 95.73%
- 0 day Purity (%) [2]: 98.3%
- 5 days Purity (%) [2]: 95.7%
- 5 days Relative Purity (%) [2]: 97.36%
- 10 days Purity (%) [2]: 94.2%
- 10 days Relative Purity (%) [2]: 95.83%

Substance: HdAEGTFTSDL SKQMEEEAVR LFIEWLKNGG PSSGAPPPC-NH2 [Sample 2-1]
- 0 day Purity (%) [1]: 98.0%
- 5 days Purity (%) [1]: 93.8%
- 5 days Relative Purity (%) [1]: 95.71%
- 10 days Purity (%) [1]: 89.6%
- 10 days Relative Purity (%) [1]: 91.43%
- 15 days Purity (%) [1]: 86.7%
- 15 days Relative Purity (%) [1]: 88.47%
- main impurity ([1]; stability test, cysteine at C-terminal end): dimers formed by oxidization of the mercapto-groups
- stability of the polypeptide (conclusion in words) [3]: not very stable
- Purity (%) 0 day [3]: 98%
- Purity (%) 5th day [3]: 93.1%
- Purity (%) 10th day [3]: 90.4%
- Purity (%) 15th day [3]: 88.2%

Substance: HdAEGTFTSDL SKQMEEEAVR LFIEWLKNGG PSSGAPPPC-PEG40K [Sample 4]
- stability compared with samples 2-1 and 9-1 [1]: even higher stability
- 0 day Purity (%) [1]: 99.7%
- 5 days Purity (%) [1]: 99.4%
- 5 days Relative Purity (%) [1]: 99.70%
- 10 days Purity (%) [1]: 99.3%
- 10 days Relative Purity (%) [1]: 99.60%
- 15 days Purity (%) [1]: 99.0%
- 15 days Relative Purity (%) [1]: 99.30%
- stability of the polypeptide (conclusion in words) [3]: very stable
- Purity (%) 0 day [3]: 99.7%
- Purity (%) 5th day [3]: 99.4%
- Purity (%) 10th day [3]: 99.0%
- Purity (%) 15th day [3]: 99.3%
- AUC (area under the curve of the blood glucose level) [4, 5]: 176.4 ± 22.0 mg·h/dL
- Blood Glucose level 0 min [4, 5]: 116.6 ± 10.8 mg/dL
- Blood Glucose level 30 min [4, 5]: 95.7 ± 9.9 mg/dL
- Blood Glucose level 60 min [4, 5]: 88.9 ± 28.6 mg/dL
- Blood Glucose level 120 min [4, 5]: 65.4 ± 5.1 mg/dL
- AUC (area under the curve of the blood glucose level) [4, 6]: 166.6 ± 16.7 mg·h/dL
- Blood Glucose level 0 min [4, 6]: 122.2 ± 9.1 mg/dL
- Blood Glucose level 30 min [4, 6]: 92.1 ± 12.4 mg/dL
- Blood Glucose level 60 min [4, 6]: 76.7 ± 8.7 mg/dL
- Blood Glucose level 120 min [4, 6]: 64.9 ± 7.5 mg/dL
- AUC (area under the curve of the blood glucose level) [4, 7]: 253.6 ± 24.4 mg·h/dL
- Blood Glucose level 0 min [4, 7]: 96.2 ± 8.6 mg/dL
- Blood Glucose level 30 min [4, 7]: 172.8 ± 33.2 mg/dL
- Blood Glucose level 60 min [4, 7]: 132.1 ± 12.4 mg/dL
- Blood Glucose level 120 min [4, 7]: 88.3 ± 7.8 mg/dL
- AUC (area under the curve of the blood glucose level) [4, 8]: 217.0 ± 21.9 mg·h/dL
- Blood Glucose level 0 min [4, 8]: 89.5 ± 9.3 mg/dL
- Blood Glucose level 30 min [4, 8]: 149.3 ± 32.4 mg/dL
- Blood Glucose level 60 min [4, 8]: 108.6 ± 8.8 mg/dL
- Blood Glucose level 120 min [4, 8]: 77.1 ± 8.4 mg/dL
- 0 day Purity (%) [2]: 99.7%
- 5 days Purity (%) [2]: 99.0%
- 5 days Relative Purity (%) [2]: 99.30%
- 10 days Purity (%) [2]: 98.2%
- 10 days Relative Purity (%) [2]: 98.50%

Substance: HdAEGTFTSDL SKQMEEEAVR LFIEWLVKGG PSSGAPPPK* (H[dA]EGTFTSDLSKQMEEEAVRLFIEWLVKGGPSSGAPPPK(code ∗); reading uncertain; also: C-terminal modification (*)) [Sample 11]
- 0 day Purity (%) [1]: 98.3%
- 5 days Purity (%) [1]: 96.7%
- 5 days Relative Purity (%) [1]: 98.37%
- 10 days Purity (%) [1]: 95.9%
- 10 days Relative Purity (%) [1]: 97.56%
- 15 days Purity (%) [1]: 94.8%
- 15 days Relative Purity (%) [1]: 96.44%
- 0 day Purity (%) [2]: 98.3%
- 5 days Purity (%) [2]: 97.1%
- 5 days Relative Purity (%) [2]: 98.78%
- 10 days Purity (%) [2]: 96.4%
- 10 days Relative Purity (%) [2]: 98.07%

Substance: HdAEGTFTSDL SKQNleEEEAVR LFIEWLKQGG PSSGAPPPS-NH2 [Sample 3]
- 0 day Purity (%) [1]: 98.9%
- 5 days Purity (%) [1]: 98.7%
- 5 days Relative Purity (%) [1]: 99.80%
- 10 days Purity (%) [1]: 98.7%
- 10 days Relative Purity (%) [1]: 99.80%
- 15 days Purity (%) [1]: 98.6%
- 15 days Relative Purity (%) [1]: 99.70%
- Purity (%) 0 day [3]: 98.9%
- Purity (%) 5th day [3]: 98.8%
- Purity (%) 10th day [3]: 98.8%
- Purity (%) 15th day [3]: 98.8%
- 0 day Purity (%) [2]: 98.9%
- 5 days Purity (%) [2]: 98.6%
- 5 days Relative Purity (%) [2]: 99.70%
- 10 days Purity (%) [2]: 98.5%
- 10 days Relative Purity (%) [2]: 99.60%

Substance: HdAEGTFTTSDL SKQNleEEEAVR LFIEWLKQGG PSSGAPPPC(AM) [Sample 9-2]
- 0 day Purity (%) [1]: 99.0%
- 5 days Purity (%) [1]: 98.9%
- 5 days Relative Purity (%) [1]: 99.90%
- 10 days Purity (%) [1]: 98.8%
- 10 days Relative Purity (%) [1]: 99.80%
- 15 days Purity (%) [1]: 98.8%
- 15 days Relative Purity (%) [1]: 99.80%
- 0 day Purity (%) [2]: 99.0%
- 5 days Purity (%) [2]: 98.8%
- 5 days Relative Purity (%) [2]: 99.80%
- 10 days Purity (%) [2]: 98.7%
- 10 days Relative Purity (%) [2]: 99.70%

Substance: HdAEGTFTTSDL SKQNleEEEAVR LFIEWLKQGG PSSGAPPPC-PEG40K [Sample 13]
- stability compared with samples 2-1 and 9-1 [1]: even higher stability
- 0 day Purity (%) [1]: 99.8%
- 5 days Purity (%) [1]: 99.6%
- 5 days Relative Purity (%) [1]: 99.80%
- 10 days Purity (%) [1]: 99.7%
- 10 days Relative Purity (%) [1]: 99.90%
- 15 days Purity (%) [1]: 99.5%
- 15 days Relative Purity (%) [1]: 99.70%
- 0 day Purity (%) [2]: 99.8%
- 5 days Purity (%) [2]: 99.3%
- 5 days Relative Purity (%) [2]: 99.50%
- 10 days Purity (%) [2]: 98.9%
- 10 days Relative Purity (%) [2]: 99.10%
